According to paper PMC5935684:

Molecular target: nucleosome core particle assembled on a 149 bp long 601 DNA sequence (Xenopus laevis)
Assay: cryo-EM micrographs and 2D classification; NCPs on 149 bp 601 DNA at 150 mM NaCl; particles with a second NCP in the proximity counted by 2D classification (Relion)

## nucleosome core particle assembled on a 149 bp long 601 DNA sequence (complex)
  percent of particles with a second NCP in the proximity: 20%
